Marks after values point to notes of the source that are not given here.
Key:
Type in all cases: cell-based
[1] = tested on: ex vivo human skin sample; test: Inducers of inflammation: inflammation marker secreted into the media by ex vivo skin samples (ELISA)
Text: (§1) This Example describes the materials and methods used in preparing ex vivo skin samples for use according to the methods disclosed herein. Materials used in preparation of ex vivo skin samples for use in the disclosed screening methods included: Dulbecco's Modified Eagle Medium (DMEM) plus Glutamax, antibiotic and antimycotics, 1× phosphate-buffered saline (PBS), 150×15 mm sterile culture dishes, sterile gauze 4×4, disposable safety scalpels, 4 mm disposable biopsy punch, 6-well cell-culture inserts, disinfected tweezers, cotton-tipped applicators, 6-well culture plates, ruled, disinfected cutting mat (12×12), scraper handle, tissue freezing medium, biopsy cassettes, frozen-tissue freezing vessels, 10% formalin, shipping containers for fixed tissue, and biohazard/sharps containers. Media was prepared in advance of the arrival of ex vivo skin. The skin arrived with the dermis (fat) side down on sterile DMEM soaked gauze in a sterile culture dish. The culture dish was taped shut and in a biohazard zip-lock baggie on an ice pack in a secondary container.
(§2) On arrival, the skin was removed from the bag and soaked in 3×DMEM media (3× refers to concentration of antibiotic and antimycotics) and stored at 4° C. for 1 hour. After 1 hour, the skin was removed from the 3×DMEM and rinsed with sterile 1×PBS. The skin was placed in a clean culture dish containing gauze soaked with 1×DMEM. The sample was put in culture the same day as arrival. If necessary, however, the ex vivo skin samples can be stored at 4° C. overnight.
In preparation for culture, the following was performed: on a cutting mat, the skin was flipped over so that the epidermis was down and the subcutis (fat) was exposed. The fat was removed with a disposable scalpel by carefully grasping one corner of the skin with sterile serrated forceps and scraping the fat away with the blade held at a 45° angle to the skin. After the fat was removed, the surgical edges were cut off with a scalpel using a scraper as a straight edge guide and to hold the skin in place. […]

[2] = tested on: ex vivo human skin sample; test: Inducers of inflammation: inflammation marker gene expression in ex vivo skin samples (PCR); settings: for CALML5 Up-Down Regulation (relative to control) / DEFB4 Up-Down Regulation (relative to control) / FLG Up-Down Regulation (relative to control) / IL-6 Up-Down Regulation (relative to control) / IL-8 Up-Down Regulation (relative to control) / KRT6A Up-Down Regulation (relative to control) / KRT10 Up-Down Regulation (relative to control) / S100A7 Up-Down Regulation (relative to control) / TNF-α Up-Down Regulation (relative to control): IL-17 or IL-22 alone, 96 hours
Text: as §1, §2
In preparation for culture, the following was performed: on a cutting mat, the skin was flipped over so that the epidermis was down and the subcutis (fat) was exposed. The fat was removed with a disposable scalpel by carefully grasping one corner of the skin with sterile serrated forceps and scraping the fat away with the blade held at a 45° angle to the skin. After the fat was removed, the surgical edges were cut off with a scalpel using a scraper as a straight edge guide and to hold the skin in place. Using the scraper as a guide, the skin was cut into 1.25 cm (2×2 squares on grid) wide strips using a ruler to measure the width. The strip was rinsed in a 100 mm culture dish containing 1×PBS. The strips were cut into 1.25 cm^2 squares and placed in a 100 mm culture dish on 1×DMEM-soaked gauze until they were put into culture 30 minutes later.
Culture plates were prepared that included 2.5 ml of media or media with treatment (e.g., a candidate modulator, an inflammation inducer, and/or an inhibitor of inflammation) in each well of a 6-well plate. One Millicell culture insert was added to each well and 100 μl of 1× DMEM was put in the center of each insert membrane. Squares of skin tissue were selected randomly and placed into each of the inserts (one piece of skin per insert), on top of the media on the membrane. The plates were stored at 33° C., with fresh media changes daily. As a control, baseline tissue measurements were collected from excess waste (cryogenics were used for snap-freezing). Baseline biopsy collection included two 4 mm punches for an MTT colorimetric assay (described below); one 4 mm punch was snap-frozen in OCT tissue compound for fresh histology; one 4 mm punch was fixed in 10% formalin and sent out for paraffin embedding. Expression measurements of inflammation marker genes were performed using PCR and primers appropriate to the known sequence of the gene(s) of interest.
Culturing and treatment of the ex vivo skin model comprised replicates of n=5. Before experimental treatment, compounds (e.g., a candidate modulator, an inflammation inducer, or a suppressor of inflammation) were solubilized in appropriate solvents (including PBS, media, alcohol, and DMSO). Appropriate dilutions were made for treatment and 15 ml of media was used per plate per day for treatment, with 2.5 ml of media per well under the cell culture insert. Media was pre-warmed and changed every day during the experiment.

[3] = tested on: ex vivo human skin sample; test: Histological analysis of ex vivo skin samples; settings: IL-22 at 20 ng/mL, biopsied six days after treatment, vs untreated sample at 24 hours
Experimental: The first sample was analyzed 24 hours after being collected (i.e., biopsied) from an untreated ex vivo skin sample, and the second sample was collected (i.e., biopsied) from an ex vivo skin sample six days after the skin sample was treated with IL-22 at 20 ng/mL. […] Also consistent was the effect of 10 μM clobetasol in inhibiting inflammation, as measured by a reduction in marker gene expression. In particular, S100A7 was induced about 34-fold relative to untreated skin samples, with clobetasol leading to about 26-fold increase in expression relative to the untreated control. For IL-8, induction was about 16-fold and clobetasol reduced that to about 3-fold. For IL-6, induction was about 6-fold and clobetasol inhibited that value to about 0.3-fold relative to control values. For DEFB4, induction was about 800-fold and clobetasol reduced that increase to about 200-fold relative to controls.

Molecule: IL-1β: pro-inflammatory cytokine used as inducer of inflammation
- TNF-α expression (amount of biomarker present in the media) ([1]; IL-1β 10 ng/ml on first four days of eight-day experiment, increase from about 65 pg/ml): about 120 pg/ml
- IL-6 expression (amount of biomarker present in the media) ([1]; IL-1β 10 ng/ml on first four days of eight-day experiment, increase from an average of about 8.2 ng/ml): ≤ 12.3 ng/mL
- induction of inflammation in ex vivo skin samples, in words [2]: shown to induce inflammation in ex vivo skin samples
- fold-change in IL-8 expression ([2]; 100 pg/ml IL-1β, after 1 day): 3.28 fold
- fold-change in TNF-α expression ([2]; 100 pg/ml IL-1β, after 1 day): −1.21 fold
- fold-change in IL-8 expression ([2]; 100 pg/ml IL-1β, after 2 days): 2.58 fold
- fold-change in TNF-α expression ([2]; 100 pg/ml IL-1β, after 2 days): 1.34 fold
- fold-change in IL-8 expression ([2]; 100 pg/ml IL-1β, after 3 days): 7.88 fold
- fold-change in TNF-α expression ([2]; 100 pg/ml IL-1β, after 3 days): 1.37 fold
- fold-change in IL-8 expression ([2]; 100 pg/ml IL-1β, after 4 days): 5.47 fold
- fold-change in TNF-α expression ([2]; 100 pg/ml IL-1β, after 4 days): 2.67 fold
- fold-change in IL-8 expression ([2]; 100 pg/ml IL-1β, after 6 days): 2.42 fold
- fold-change in TNF-α expression ([2]; 100 pg/ml IL-1β, after 6 days): −1.29 fold
- fold-change in IL-8 expression ([2]; 100 pg/ml IL-1β, after 10 days): 9.02 fold
- fold-change in TNF-α expression ([2]; 100 pg/ml IL-1β, after 10 days): 1.19 fold
- HMGCR expression relative to untreated controls, at termination ([2]; 100 pg/ml IL-1β, end of 10-day experiment): about 0.8 fold
- ceramide synthase 3, increase in expression ([2]; IL-1β, both 10 pg/ml and 100 pg/ml, day 10): ~1.5 fold

B1: IL-22: pro-inflammatory cytokine used as inducer of inflammation; also inducer of cell proliferation (protein, UniProt Q9GZX6 34-179, looked up)
Interleukin-22: APISSHCRLDKSNFQQPYITNRTFMLAKEASLADNNTDVRLIGEKLFHGVSMSERCYLMKQVLNFTLEEVLFPQSDRFQPYMQEVVPFLARLSNRLSTCHIEGDDLHIQRNVQKLKDTVKKLGESGEIKAIGELDLLFMSLRNACI
- IL-8 secreted into the media ([1]; 20 ng/ml IL-22 only, day 4, untreated about 5,800 pg/ml): about 5,500 pg/ml
- histology: skin cell proliferation (basal layer) [3]: clearly exhibits a proliferative basal layer
- induction of inflammation in ex vivo skin samples, in words [2]: shown to induce inflammation in ex vivo skin samples
- DEFB4 expression relative to an untreated ex vivo skin sample ([2]; 2 ng/ml IL-22): 0.00
- KRT10 fold-expression level relative to an untreated ex vivo skin sample ([2]; 2 ng/ml IL-22): about 0.00 fold
- DEFB4 expression relative to an untreated ex vivo skin sample ([2]; 20 ng/ml IL-22): about 3.00
- KRT10 fold-expression level relative to an untreated ex vivo skin sample ([2]; 20 ng/ml IL-22): about −3.00 fold
- DEFB4 expression relative to an untreated ex vivo skin sample ([2]; 200 ng/ml IL-22): about 20.00
- KRT10 fold-expression level relative to an untreated ex vivo skin sample ([2]; 200 ng/ml IL-22): about −18.00 fold
- CALML5 Up-Down Regulation (relative to control) ([2]; 2 ng/ml): 1.17*
- DEFB4 Up-Down Regulation (relative to control) ([2]; 2 ng/ml): −1.03
- FLG Up-Down Regulation (relative to control) ([2]; 2 ng/ml): 1.28
- IL-6 Up-Down Regulation (relative to control) ([2]; 2 ng/ml): 1.35
- IL-8 Up-Down Regulation (relative to control) ([2]; 2 ng/ml): 1.71*
- KRT6A Up-Down Regulation (relative to control) ([2]; 2 ng/ml): −1.16
- KRT10 Up-Down Regulation (relative to control) ([2]; 2 ng/ml): 1.40
- S100A7 Up-Down Regulation (relative to control) ([2]; 2 ng/ml): 1.02
- TNF-α Up-Down Regulation (relative to control) ([2]; 2 ng/ml): 1.95*
- CALML5 Up-Down Regulation (relative to control) ([2]; 20 ng/ml): −2.29*
- DEFB4 Up-Down Regulation (relative to control) ([2]; 20 ng/ml): 2.69*
- FLG Up-Down Regulation (relative to control) ([2]; 20 ng/ml): −10.55*
- IL-6 Up-Down Regulation (relative to control) ([2]; 20 ng/ml): 1.30
- IL-8 Up-Down Regulation (relative to control) ([2]; 20 ng/ml): 1.43
- KRT6A Up-Down Regulation (relative to control) ([2]; 20 ng/ml): 1.32
- KRT10 Up-Down Regulation (relative to control) ([2]; 20 ng/ml): −2.69*
- S100A7 Up-Down Regulation (relative to control) ([2]; 20 ng/ml): 2.04*
- TNF-α Up-Down Regulation (relative to control) ([2]; 20 ng/ml): 1.56*
- CALML5 Up-Down Regulation (relative to control) ([2]; 200 ng/ml): −4.61*
- DEFB4 Up-Down Regulation (relative to control) ([2]; 200 ng/ml): 20.23*
- FLG Up-Down Regulation (relative to control) ([2]; 200 ng/ml): −13.37*
- IL-6 Up-Down Regulation (relative to control) ([2]; 200 ng/ml): 1.31
- IL-8 Up-Down Regulation (relative to control) ([2]; 200 ng/ml): 1.72*
- KRT6A Up-Down Regulation (relative to control) ([2]; 200 ng/ml): 1.08
- KRT10 Up-Down Regulation (relative to control) ([2]; 200 ng/ml): −17.54*
- TNF-α Up-Down Regulation (relative to control) ([2]; 200 ng/ml): 1.33*
